Assay results taken from paper PMC5548745, “Agonist-induced dimer dissociation as a macromolecular step in G protein-coupled receptor signaling” (Nature Communications, 2017).
“Also recorded” adds a separate entry of the source.

B1: FZD6-GFP: GFP-tagged human FZD6 receptor construct (protein)
chain: HSLFTCEPITVPRCMKMAYNMTFFPNLMGHYDQSIAAVEMEHFLPLANLECSPNIETFLCKAFVPTCIEQIHVVPPCRKLCEKVYSDCKKLIDTFGIRWPEELECDRLQYCDETVPVTFDPHTEFLGPQKKTEQVQRDIGFWCPRHLKTSGGQGYKFLGIDQCAPPCPNMYFKSDELEFAKSFIGTVSIFCLCATLFTFLTFLIDVRRFRYPERPIIYYSVCYSIVSLMYFIGFLLGDSTACNKADEKLELGDTVVLGSQNKACTVLFMLLYFFTMAGTVWWVILTITWFLAAGRKWSCEAIEQKAVWFHAVAWGTPGFLTVMLLAMNKVEGDNISGVCFVGLYDLDASRYFVLLPLCLCVFVGLSLLLAGIISLNHVRQVIQHDGRNQEKLKKFMIRIGVFSGLYLVPLVTLLGCYVYEQVNRITWEITWVSDHCRQYHIPCPYQAKAKARPELALFMIKYLMTLIVGISAVFWVGSKKTCTEWAGFFKRNRKRDPISESRRVLQESCEFFLKHNSKVKHKKKHYKPSSHKLKVISKSMGTSTGATANHGTSAVAITSHDYLGQETLTEIQTSPETSMREVKADGASTPRLREQDCGEPASPAASISRLSGEQVDGKGQAGSVSESARSEGRISPKSDITDTGLAQSNNLQVPSSSEPSSLKGSTSLLVHPVSGVRKEQGGGCHSDT
modifications: left off: V5 (on the crosslinked copy), N-terminal, kept | mCherry (on the crosslinked copy), C-terminal, kept | GFP (on the other, mobile copy), C-terminal, kept
notes: GFP-tagged human FZD6 receptor construct

How the values were obtained:
[1] = tested on: ERK1/2 phosphorylation in HEK293 cells; test: P-ERK1/2 immunoblot, HEK293 cells expressing SNAP-FZD6 constructs; format: cell-based; conditions: HEK293; C59 5 µM overnight
Procedure: Fig. 6 Relationship between FZD6 dimerization and phosphorylation of ERK1/2. a Mouse lung epithelial (MLE-12) cells were stimulated with WNT-5A (300 ng ml^−1) for 0, 2.5, 5, 10, 20 min. Cell lysates were analyzed for P-ERK1/2 and β-actin by immunoblotting. Additional information in Supplementary Fig. 6. b Bar graph summarizes three independent experiments. Densitometry data were normalized to the unstimulated control. […] Additional information in Supplementary Fig. 6. SNAP-FZD6 wt- and SNAP-FZD6 dimer mutant-induced ERK1/2 phosphorylation in the absence e and presence f of the porcupine inhibitor C59 (5 µM, overnight) were probed by immunoblotting for the SNAP-tag, P-ERK1/2, total ERK1/2 and β-actin. g The bar graph summarizes densitometry data of P-ERK1/2 normalized to total ERK1/2 from 6 different experiments. P = 0.0005; F (2, 15) = 13.08. ***P < 0.001. Empty vector transfection was used as mock. h Increasing amounts of plasmid of either SNAP-FZD6 wt or SNAP-FZD6 dimer mutant in the presence of C59 show a dose-dependent increase in P-ERK1/2 only with the dimer mutant. Data from three independent experiments for the dimer mutant were fit to a linear least-squares model (slope = 0.40 ± 0.10; R ^2 = 0.5943) and this line is shown superimposed. […] This dissociation-dependent activation can be evoked by agonist (WNT^high) or mutation of the dimer interface (symbolized by red stars). WNT^low conditions can be achieved in the presence of C59, which reduces FZD6 wt signaling
MLE-12 or HEK293 cells (ATCC) were plated in a 24- or 48-well plate at a density of 100,000 or 50,000 cells/well, respectively. After 24 h, cells were transfected using Lipofectamine 2000 according to the manufacturer’s instructions. Cells were stimulated (24 h post-transfection) with 300 ng ml^−1 recombinant carrier-free WNT-5A (CF WNT-5A; R&D Systems). Stimulation was stopped by the addition of lysis buffer (1% NP-40, 150 mM NaCl, 50 mM Tris/HCl pH 8). Lysates were sonicated and analyzed by 7.5 or 10% Mini-PROTEAN TGX precast polyacrylamide gels (Bio-Rad) and transferred to PVDF membranes using the Trans-Blot Turbo system (Bio-Rad). After blocking with 5% milk or BSA in TBS-T, membranes were incubated with primary antibodies in blocking buffer: mouse anti-β-actin (1:30,000; Sigma #A5441), rabbit anti-FZD6 (1:1000; NovusBio #NBP1-00830), rabbit anti-Phospho-p44/42 MAPK (ERK1/2) (Thr202/Tyr204) (1:1000; Cell Signaling Technology #9101 L), rabbit anti-p44/42 MAPK (ERK1/2) (1:1000; Cell Signaling Technology #9102), rabbit anti-Phospho-C-RAF (Ser338) (1:1000; Cell Signaling Technology #56A6), rabbit anti-SNAP tag (1:1000, New England Biolabs #P9310S), and rabbit anti-HA (1:4000, abcam #ab9110) overnight at 4 °C. Proteins were detected with horseradish peroxidase-conjugated secondary antibodies (goat anti-rabbit and goat anti-mouse (Pierce)) and Clarity Western ECL Blotting Substrate (Bio-Rad). All uncropped immunoblots can be found in the Supplementary Information.

porcupine = conditions: cited from earlier work
FZD6–FZD6 dimer [2] = test: dcFRAP of V5-FZD6-mCherry/FZD6-GFP (FZD6 dimerization); format: cell-based, human
Procedure, shortened: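 Live cells co-expressing V5-FZD6-mCherry and FZD6-GFP, surface V5 tag crosslinked with biotin-anti-V5 plus avidin in BE buffer at RT. Membrane areas photobleached, recovery imaged (488/561 nm) over 100 s; mobile fraction from background/bleach-corrected, pre-bleach-normalized intensity at 85-101 s. Cells with <40% crosslink-induced mobility reduction excluded.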

FZD6–FZD6 dimer [3] = test: dynamic FCCS of V5-FZD6-mCherry/FZD6-GFP; format: cell-based, human; conditions: HEK293; representative cell; G cc normalized to green auto-correlation amplitude; prior to stimulation
Procedure: HEK293 cells were grown over-night in Lab-Tek eight-well chamber-glass bottom slides (Nunc, Thermo Scientific, Langensbold, Germany) coated with matrigel. Data were acquired in 10 s intervals. Collection intervals containing abnormal fluorescence peaks (presumably resulting from aggregates or ROIs where the overall fluorescence was decaying, putatively due to membrane movements) were discarded from the overall analysis. The total included measurements time ranged from 20 to 80 s per cell. Measurements were only undertaken on cells where the fluorescence was well localized to the cell surface membrane, as judged by visual inspection in the wide-field and confocal mode. Autofluorescence, as well as fluorescence from both GFP and mCherry in the intracellular region was negligible. The number of fluorescent receptors assessed in each experiment varied from 10–1000 receptors per µm^2 in each HEK293 cell.
Dynamic FCCS measurements of WNT-dependent dissociation and re-association of FZD (Fig. 5c–e) were performed on an FCS/FCCS-equipped Zeiss 780 confocal microscope (Zeiss, Jena, Germany). The instrument details were the same as those of the Confocor 3 described above, with the exception that 561 nm excitation was used for excitation of mCherry, that GFP emission was detected from 500 to 550 nm, and that mCherry emission was detected from 600 to 690 nm. Experiments on cells were performed as described above, with each measurement point consisting of 3–6 measurements of 10 s each. […]
Assuming that M is FZD6-GFP (green) and N is FZD6-mCherry (red) and that all FZD6 form dimers, then the probability of finding a green–red FZD6 dimer is pgr=2×M×N/(M+N)(M+N-1)≈2×M×N/M+N^2=(2cgg+cgr)(2crr+cgr)/2cgg+cgr+crr^2 , where c gg, c gr, and c rr are the corresponding concentrations of the only green FZD6 dimers, the red and green FZD6 dimers and the only red FZD6 dimers. […] From the experiments, we determine the concentrations for c gg, c gr and c rr and compare the concentrations c gr with the c′gr for each cell to get an estimation of how close the model is to experimental data: cgr/c′gr=2cgr×(cgg+cgr+crr)/((2cgg+cgr)(2crr+cgr)) Analysis of the dynamic FCCS measurements of WNT-dependent dissociation and re-association of FZD6: Auto-correlation and cross-correlation curves were analyzed as described above and the amplitudes G g(0)−1, G r(0)−1, and G cc(0)−1 from each of the more than 300 measurements of 10 s duration were estimated by fitting to theoretical models. […]
With the settings described above for detection of emission, the crosstalk from the GFP channel to the mCherry channel, defined as the intensity detected in the mCherry channel divided by the intensity detected in the GFP channel, I r/I g, for a cell expressing only FZD-GFP, was 0.051 or 5.1 %. […]

FZD6–FZD6 dimer [4] = test: ratiometric FRET of C-terminally tagged FZD6 constructs; format: cell-based, human

| Molecule | effect of C59 on FZD6 wt-induced P-ERK1/2 [1] | effect on endogenous WNT secretion (porcupine) | mobile fraction of FZD6-GFP before CL (FZD6–FZD6 dimer [2]; HEK293, basal, without biotinylated anti-V5/avidin crosslinking, 85–101 s, mean ± s.e.m., N = 21 ROIs) [%] | mobile fraction of FZD6-GFP after CL (FZD6–FZD6 dimer [2]; HEK293, with biotinylated anti-V5/avidin crosslinking, 85–101 s, mean ± s.e.m., N = 31 ROIs) [%] | dimeric fraction (FZD6–FZD6 dimer [2]; extrapolated from varying expression ratios, mCherry to GFP 1:1) | red molecules also green prior to WNT-5A (FZD6–FZD6 dimer [3]) [%] | energy transfer between fluorophores (FRET) (FZD6–FZD6 dimer [4]) |
| --- | --- | --- | --- | --- | --- | --- | --- |
| Cc1cc(-c2ccc(CC(=O)Nc3ccc(-c4cccnc4)cc3)cc2)ccn1 [C59, 2-[4-(2-Methylpyridin-4-yl)phenyl]-N-[4-(pyridin-3-yl)phenyl]acetamide] | reduced to basal | blocks secretion of WNT proteins; also recorded: abrogates endogenous WNT secretion | – | – | – | – | – |
| B1 | – | – | 80.8 ± 2.0 | 70.7 ± 2.4 | around 25% | 11 | not able to detect energy transfer |
